In US20220119446A1, “BIOMARKERS AND TREATMENT OF NEURONAL INJURY AND NEURODEGENERATION” (Board of Supervisons of Louisiana State University and …, priority 2018, published 2022):

Tested on: β-catenin
Test: TOP Flash/FOP flash luciferase reporter in hpRPE cells
Format: cell-based, human
Settings: hpRPE cells undergoing UOS+/−NPD1
Text: We tested whether or not Wnt5a activates […] using TOP Flash/FOP flash reporter system in hpRPE cells undergoing UOS+/−NPD1 (FIG. 1g).
Except TOP/FOP flash, the Luciferase activity can be standardized using a construct expressing GFP constitutively under CMV virus promoter. To assess luciferase activity, cell lysates can be obtained using Passive Lysis Buffer (Promega, Madison, Wis.) and mixed with a luciferase assay reagent (Promegam Madison, Wis.). Chemiluminescence produced by luciferase and fluorescence from GFP can be detected using Appliscan 2.3. Data can be analyzed using SkanIt 2.3 (Thermo Fisher Scientific, Waltham, Mass.).
Except TOP/FOP flash, the Luciferase activity was standardized using a construct expressing GFP constitutively under CMV virus promoter. To assess luciferase activity, cell lysates were obtained using Passive Lysis Buffer (Promega) and mixed with a luciferase assay reagent (Promega). Chemiluminescence produced by luciferase and fluorescence from GFP was detected using Appliscan 2.3. Data were analyzed using SkanIt 2.3 (Thermo Fisher Scientific).

B1: Wnt3a: recombinant protein, R&D systems 5036-WN; canonical Wnt ligand (protein, UniProt P56704 19-352, looked up)
Protein Wnt-3a: SYPIWWSLAVGPQYSSLGSQPILCASIPGLVPKQLRFCRNYVEIMPSVAEGIKIGIQECQHQFRGRRWNCTTVHDSLAIFGPVLDKATRESAFVHAIASAGVAFAVTRSCAEGTAAICGCSSRHQGSPGKGWKWGGCSEDIEFGGMVSREFADARENRPDARSAMNRHNNEAGRQAIASHMHLKCKCHGLSGSCEVKTCWWSQPDFRAIGDFLKDKYDSASEMVVEKHRESRGWVETLRPRYTYFKVPTERDLVYYEASPNFCEPNPETGSFGTRDRTCNVSSHGIDGCDLLCCGRGHNARAERRREKCRCVFHWCCYVSCQECTRVYDVHTCK
For B1, the “β-catenin activity (luciferase)” value was “rose almost twice”.
